Measured values taken from the supplement of paper PMC7877785.
± gives the uncertainty stated by the source.

Assay: self-splicing fitness, log relative to wild type (ln ratio); higher = more splicing; Tetrahymena group I intron in knt gene, E. coli kanamycin selection, DiMSum; sequences stand for … in CUCUCU…GGAGGGAAAAGUUAUCAGGCAUGCACCUGGUAGCUAGUCUUUAAACCAAUAGAUUGCAUCGGUUUAAAAGGCAAGACCGUCAAAUUGCGGGAAAGGGGUCAACAGCCGUUCAGUACCAAGUCUCAGGGGAAACUUUGAGAUGGCCUUGCAAAGGGUAUGGUAAUAAGCUGACGGACAUGGUCCUAACCACGCAGCCAAGUCCUAAGUCAACAGAUCUUCUGUUGAUAUGGAUGCAGUUCACAGACUAAAUGUCGGUCGGGGAAGAUGUAUUCUUCUCAUAAGAUAUAGUCGGACCUCUCCUUAAUGGGAGCUAGCGGAUGAAGUGAUGCAACACUGGAGCCGCUGGGAACUAAUUUGUAUGCGAAAGUAUAUUGAUUAGUUUUGGAGUACUCGUGGUCG
Method in brief: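 Library with all eight P1ex-region intron nucleotides randomised, intron inside the knt kanamycin-resistance gene on pET-22b(+), in E. coli BL21(DE3). Cells grew overnight at 37°C or 30°C on LB agar with or without 25 μg/mL kanamycin (plus 100 μg/mL carbenicillin, 50 μM IPTG, 0.2% rhamnose), in six replicate transformations. Pooled colonies were amplicon-sequenced on Illumina HiSeq 2500. DiMSum fitness is the error-weighted combination of wild-type-normalised replicate fold changes, kanamycin versus none.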

Row | Sequence | self-splicing fitness (ln) (30 °C) | self-splicing fitness (ln) (37 °C)
1 | UUACAGCAAUAUUACGCCUG | -0.557 ± 0.054 | 0.0548 ± 0.081
2 | UUACAGCAAUAUUACGCGGC | -2.62 ± 0.14 | -2.03 ± 0.18
3 | UUACAGCAAUAUUACGCUGC | -2.9 ± 0.35 | 
4 | UUACAGCAAUAUUACGGAGU | -4.03 ± 0.29 | -2.7 ± 0.22
5 | UUACAGCAAUAUUACGGCCG | -0.529 ± 0.16 | -0.389 ± 0.16
6 | UUACAGCAAUAUUACGGCUG | -2.21 ± 0.17 | -1.42 ± 0.2
7 | UUACAGCAAUAUUACGUAAU | -3.27 ± 0.26 | -2.32 ± 0.19
8 | UUACAGCAAUAUUACGUACC | -1.19 ± 0.21 | -0.649 ± 0.33
9 | UUACAGCAAUAUUACGUGCC | -2.86 ± 0.15 | -0.031 ± 0.13
10 | UUAGAGCAAUAUUACGAAUG | -2.2 ± 0.14 | -2.55 ± 0.26
11 | UUAGAGCAAUAUUACGACGG | 0.111 ± 0.12 | -7.81e-05 ± 0.19
12 | UUAGAGCAAUAUUACGAUGC | -2.04 ± 0.21 | -2.57 ± 0.41
13 | UUAGAGCAAUAUUACGCAGA | 1.56 ± 0.32 | 
14 | UUAGAGCAAUAUUACGCAGG | -2.7 ± 0.2 | -0.784 ± 0.16
15 | UUAGAGCAAUAUUACGCGUA | -1.59 ± 0.11 | -0.559 ± 0.13
16 | UUAGAGCAAUAUUACGCUAG | -0.574 ± 0.12 | 0.349 ± 0.15
17 | UUAGAGCAAUAUUACGCUAU | -2.27 ± 0.23 | -1.75 ± 0.26
18 | UUAGAGCAAUAUUACGCUCA | -1.75 ± 0.18 | -0.916 ± 0.26
19 | UUAGAGCAAUAUUACGGAGG | -2.3 ± 0.13 | -1.84 ± 0.18
20 | UUAGAGCAAUAUUACGGCCA | -1.02 ± 0.34 | 0.756 ± 0.35
21 | UUAGAGCAAUAUUACGGCCU | -4.22 ± 0.39 | 

Row | Sequence | self-splicing fitness (ln) (30 °C) | self-splicing fitness (ln) (37 °C)
22 | UUAGAGCAAUAUUACGGCUG | -0.433 ± 0.12 | 0.354 ± 0.17
23 | UUAGAGCAAUAUUACGGGAG | -2.32 ± 0.15 | -1.32 ± 0.18
24 | UUAGAGCAAUAUUACGGGGA | -2.48 ± 0.21 | -1 ± 0.2
25 | UUAGAGCAAUAUUACGGGUA | -3.06 ± 0.22 | -1.62 ± 0.19
26 | UUAGAGCAAUAUUACGGUUC | -2.42 ± 0.4 | 
27 | UUAGAGCAAUAUUACGUAUG | -1.6 ± 0.085 | -1.31 ± 0.12
28 | UUAGAGCAAUAUUACGUCAC |  | -2.76 ± 0.48
29 | UUAGAGCAAUAUUACGUCAU | -3.46 ± 0.31 | -2.25 ± 0.33
30 | UUAGAGCAAUAUUACGUCGA | -1.18 ± 0.12 | 0.172 ± 0.14
31 | UUAGAGCAAUAUUACGUGAA | -2.16 ± 0.12 | -0.588 ± 0.13
32 | UUAGAGCAAUAUUACGUGCC |  | -1.58 ± 0.33
33 | UUAUAGCAAUAUUACGAACU | -2.51 ± 0.18 | -0.944 ± 0.18
34 | UUAUAGCAAUAUUACGAAGC | -2.27 ± 0.42 | 
35 | UUAUAGCAAUAUUACGACCU | -3.38 ± 0.29 | -0.509 ± 0.18
36 | UUAUAGCAAUAUUACGACGA | -0.378 ± 0.098 | 0.212 ± 0.1
37 | UUAUAGCAAUAUUACGACUU | -1.85 ± 0.28 | -0.00223 ± 0.29
38 | UUAUAGCAAUAUUACGAUUC | -2.51 ± 0.27 | -1.17 ± 0.31
39 | UUAUAGCAAUAUUACGCAAC | -1.99 ± 0.34 | -1.6 ± 0.2
40 | UUAUAGCAAUAUUACGCAUA | -2.43 ± 0.29 | -0.953 ± 0.18
41 | UUAUAGCAAUAUUACGCGGG | -1.86 ± 0.17 | -1.92 ± 0.3
